Measured values: patent publication US20190233519A1 (published 2019)

B1: AS07189 HCAb (Fc fusion)
heavy: QVQLVESGGGSVQAGGSLRLSCAASGDSPSVNYMGWFRRAPEKQREQREEVASIYPTGGTFYTDSVKGRFTISRDNAKNTLYLQMTALKPEDTAMYYCAAGKWGTDYWGQGTQVIVSS
B2: AS07014 HCAb (Fc fusion)
heavy: QVHLVESGGGSVQAGGSLRLSCAASGYTYSRHCLGWFRQTPGKEREAVATIDSDGSTSYADSVKGRFTISSDNAKNTLYLQMNSLKPEDTAMYYCAIGPNPRYCSGAPNTRGAEHYFGYWAQGTQVTVSS
B3: A36566 HCAb (Fc fusion)
heavy: EVQLVESGGGLVQVGDSLRLSCAASGRSFENYAIGWFRQAPGKEREFVATISWIPRTAYSTTYYADSVKGRFTISGDNSKNTVYLQMTSLKPEDTAVYYCAAGGATGPLALDSHYGYWGQGTQVTVSS
B4: A36922 HCAb (Fc fusion)
heavy: QVQLVESGGGLVQAGGSLRLSCAASGRLSRTFTMGWYRQAPGKQRDLVASITTSGSTNYADSVKGRFTISRDNAKNTVILQMNSLVPEDTAVYYCRFLSASTAAWGQGTQVTIST
B5: BCP-2 (BCP-K311) (Keytruda-9GS-A34311) (bispecific antibody)
heavy: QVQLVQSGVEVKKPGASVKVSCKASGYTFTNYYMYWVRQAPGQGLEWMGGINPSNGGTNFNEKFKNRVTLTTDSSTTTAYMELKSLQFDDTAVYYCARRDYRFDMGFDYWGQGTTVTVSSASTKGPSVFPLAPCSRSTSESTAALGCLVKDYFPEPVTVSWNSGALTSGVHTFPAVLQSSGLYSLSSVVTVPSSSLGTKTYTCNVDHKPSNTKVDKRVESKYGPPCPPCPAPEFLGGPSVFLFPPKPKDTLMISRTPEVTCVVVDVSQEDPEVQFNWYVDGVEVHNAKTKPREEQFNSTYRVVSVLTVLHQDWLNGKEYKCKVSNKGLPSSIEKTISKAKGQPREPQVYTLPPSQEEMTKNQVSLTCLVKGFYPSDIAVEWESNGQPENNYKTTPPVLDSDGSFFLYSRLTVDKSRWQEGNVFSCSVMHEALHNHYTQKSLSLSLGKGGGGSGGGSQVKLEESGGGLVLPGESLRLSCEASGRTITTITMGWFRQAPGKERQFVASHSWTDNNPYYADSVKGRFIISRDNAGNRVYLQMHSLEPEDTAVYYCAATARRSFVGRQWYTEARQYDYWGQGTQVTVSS
light: EIVLTQSPATLSLSPGERATLSCRASKGVSTSGYSYLHWYQQKPGQAPRLLIYLASYLESGVPARFSGSGSGTDFTLTISSLEPEDFAVYYCQHSRDLPLTFGGGTKVEIKRTVAAPSVFIFPPSDEQLKSGTASVVCLLNNFYPREAKVQWKVDNALQSGNSQESVTEQDSKDSTYSLSSTLTLSKADYEKHKVYACEVTHQGLSSPVTKSFNRGEC
B6: BCP-74 (AS07014VH11-mutated hIgG1 hinge-Keytruda) (bispecific antibody)
heavy: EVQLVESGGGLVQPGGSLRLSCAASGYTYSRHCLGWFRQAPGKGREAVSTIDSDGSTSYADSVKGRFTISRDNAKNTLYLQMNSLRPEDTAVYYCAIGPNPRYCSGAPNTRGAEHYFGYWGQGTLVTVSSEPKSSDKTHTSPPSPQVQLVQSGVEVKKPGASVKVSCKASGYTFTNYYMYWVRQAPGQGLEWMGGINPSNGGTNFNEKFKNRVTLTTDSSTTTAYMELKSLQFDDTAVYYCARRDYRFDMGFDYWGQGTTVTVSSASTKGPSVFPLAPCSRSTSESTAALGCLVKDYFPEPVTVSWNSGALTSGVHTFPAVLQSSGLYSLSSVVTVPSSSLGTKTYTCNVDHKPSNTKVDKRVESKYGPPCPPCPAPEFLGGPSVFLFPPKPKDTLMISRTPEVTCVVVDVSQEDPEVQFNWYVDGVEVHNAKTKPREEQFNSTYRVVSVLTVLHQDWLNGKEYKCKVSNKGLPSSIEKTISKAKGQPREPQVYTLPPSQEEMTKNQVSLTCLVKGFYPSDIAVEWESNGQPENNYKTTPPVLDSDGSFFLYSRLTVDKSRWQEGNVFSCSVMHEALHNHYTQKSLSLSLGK
light: B5 light
B7: BCP-78 (A34311VH11-mutated hIgG1 hinge-Opdivo) (bispecific antibody)
heavy: EVQLVESGGGVVQPGRSLRLSCAASGRTITTITMGWFRQAPGKGREFVASHSWTDNNPYYADSVKGRFTISRDNAKNTLYLQMNSLRPEDTAVYYCAATARRSFVGRQWYTEARQYDYWGQGTLVTVSSEPKSSDKTHTSPPSPQVQLVESGGGVVQPGRSLRLDCKASGITFSNSGMHWVRQAPGKGLEWVAVIWYDGSKRYYADSVKGRFTISRDNSKNTLFLQMNSLRAEDTAVYYCATNDDYWGQGTLVTVSSASTKGPSVFPLAPCSRSTSESTAALGCLVKDYFPEPVTVSWNSGALTSGVHTFPAVLQSSGLYSLSSVVTVPSSSLGTKTYTCNVDHKPSNTKVDKRVESKYGPPCPPCPAPEFLGGPSVFLFPPKPKDTLMISRTPEVTCVVVDVSQEDPEVQFNWYVDGVEVHNAKTKPREEQFNSTYRVVSVLTVLHQDWLNGKEYKCKVSNKGLPSSIEKTISKAKGQPREPQVYTLPPSQEEMTKNQVSLTCLVKGFYPSDIAVEWESNGQPENNYKTTPPVLDSDGSFFLYSRLVDKSRWQEGNVFSCSVMHEALHNHYTQKSLSLSLGK
light: not shown
B8: BCP-75 (AS07189TKDVH11-mutated hIgG1 hinge-Keytruda) (bispecific antibody)
heavy: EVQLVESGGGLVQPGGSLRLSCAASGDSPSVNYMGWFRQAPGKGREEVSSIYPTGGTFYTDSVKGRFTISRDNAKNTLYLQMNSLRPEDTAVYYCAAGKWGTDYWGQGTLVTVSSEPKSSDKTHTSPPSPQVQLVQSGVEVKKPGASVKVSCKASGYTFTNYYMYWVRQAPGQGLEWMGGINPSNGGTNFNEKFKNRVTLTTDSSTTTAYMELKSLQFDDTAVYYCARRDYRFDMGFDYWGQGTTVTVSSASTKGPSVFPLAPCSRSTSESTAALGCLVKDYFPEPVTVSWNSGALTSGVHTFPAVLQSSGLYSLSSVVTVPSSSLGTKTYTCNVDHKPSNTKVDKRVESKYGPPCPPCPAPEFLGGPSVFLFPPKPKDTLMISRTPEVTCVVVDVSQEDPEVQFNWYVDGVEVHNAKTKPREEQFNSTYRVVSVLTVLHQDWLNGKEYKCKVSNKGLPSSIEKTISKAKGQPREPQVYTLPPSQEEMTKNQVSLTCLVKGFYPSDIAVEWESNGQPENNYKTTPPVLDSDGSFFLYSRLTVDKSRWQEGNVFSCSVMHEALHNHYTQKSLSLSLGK
light: B5 light
B9: BCP-73 (A34311VH11-mutated hIgG1 hinge-Keytruda) (bispecific antibody)
heavy: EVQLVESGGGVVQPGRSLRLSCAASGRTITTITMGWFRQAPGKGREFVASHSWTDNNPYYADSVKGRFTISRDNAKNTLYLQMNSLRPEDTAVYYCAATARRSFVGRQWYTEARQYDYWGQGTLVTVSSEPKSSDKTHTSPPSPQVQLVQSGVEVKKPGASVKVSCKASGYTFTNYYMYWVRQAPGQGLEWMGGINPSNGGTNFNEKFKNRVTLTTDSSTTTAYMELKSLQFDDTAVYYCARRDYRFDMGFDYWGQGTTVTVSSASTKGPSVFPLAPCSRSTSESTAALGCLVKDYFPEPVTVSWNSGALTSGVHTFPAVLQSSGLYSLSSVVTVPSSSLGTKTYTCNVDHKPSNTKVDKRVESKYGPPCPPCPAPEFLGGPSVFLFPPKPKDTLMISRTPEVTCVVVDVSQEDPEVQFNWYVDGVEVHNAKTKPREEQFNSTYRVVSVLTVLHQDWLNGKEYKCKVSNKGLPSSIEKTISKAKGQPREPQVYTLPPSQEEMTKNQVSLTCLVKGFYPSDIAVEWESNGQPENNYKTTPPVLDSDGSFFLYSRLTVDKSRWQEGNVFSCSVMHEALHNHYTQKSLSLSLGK
light: B5 light
B10: BCP-311K (A34311-9GS-Keytruda) (bispecific antibody)
heavy: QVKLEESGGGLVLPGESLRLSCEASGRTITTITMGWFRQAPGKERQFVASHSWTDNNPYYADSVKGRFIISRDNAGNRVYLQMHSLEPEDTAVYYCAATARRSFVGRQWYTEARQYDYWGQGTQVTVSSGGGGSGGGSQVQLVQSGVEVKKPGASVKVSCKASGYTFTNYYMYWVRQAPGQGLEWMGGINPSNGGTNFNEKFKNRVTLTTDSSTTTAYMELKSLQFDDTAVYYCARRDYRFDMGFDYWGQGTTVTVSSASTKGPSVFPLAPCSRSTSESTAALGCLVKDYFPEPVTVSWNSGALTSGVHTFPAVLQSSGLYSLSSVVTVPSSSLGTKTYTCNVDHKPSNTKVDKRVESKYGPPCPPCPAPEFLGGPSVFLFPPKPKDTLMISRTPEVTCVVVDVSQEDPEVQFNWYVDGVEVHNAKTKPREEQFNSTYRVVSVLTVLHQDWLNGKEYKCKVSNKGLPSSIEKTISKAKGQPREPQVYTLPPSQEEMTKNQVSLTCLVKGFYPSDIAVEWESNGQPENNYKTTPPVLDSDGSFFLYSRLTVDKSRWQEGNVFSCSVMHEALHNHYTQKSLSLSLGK
light: B5 light
B11: AS02640 sdAb (VHH)
VHH: QVQLVESGGGVVQPGRSLRLSCAASGRTITTITMGWFRQAPGKGLEFVASHSWTDNNPYYADSVKGRFIISRDNSKNRLYLQMNSLRAEDTAVYYCAATARRSFVGRQWYTEARQYDYWGQGTLVTVSS
B12: A34311 sdAb (VHH)
VHH: QVKLEESGGGLVLPGESLRLSCEASGRTITTITMGWFRQAPGKERQFVASHSWTDNNPYYADSVKGRFIISRDNAGNRVYLQMHSLEPEDTAVYYCAATARRSFVGRQWYTEARQYDYWGQGTQVTVSS

molecular target: T1, human CTLA-4 expressed on CHO cells (UniProt P16410 37-223); test: FACS cell binding
T1 sequence (P16410 37-223): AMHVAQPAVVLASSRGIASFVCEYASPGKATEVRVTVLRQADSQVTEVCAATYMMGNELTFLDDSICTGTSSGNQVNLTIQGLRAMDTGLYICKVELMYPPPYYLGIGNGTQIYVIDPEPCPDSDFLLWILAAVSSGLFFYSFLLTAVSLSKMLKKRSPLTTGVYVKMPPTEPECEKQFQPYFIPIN

**Q.** With B1 as the binder, how does the EC50 read?
**A.** The EC50 was 6.8 nM.

**Q.** Which EC50 does the source give for B2 here?
**A.** The EC50 was 15.3 nM.

molecular target: T2, biotin-labeled hCTLA-4/Fc protein (UniProt P16410 37-161, biotin label in the FACS competition assays (sites not given)); test: FACS ligand competition (B7-1 cells)
T2 sequence (P16410 37-161): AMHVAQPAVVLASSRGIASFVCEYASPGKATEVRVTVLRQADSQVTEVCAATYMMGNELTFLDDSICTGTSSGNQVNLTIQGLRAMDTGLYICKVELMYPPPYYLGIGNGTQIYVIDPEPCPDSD

**Q.** With B3 as the binder, how does the IC50 read?
**A.** Its IC50 is 6.6 nM.

**Q.** With B4 as the binder, how does the IC50 read?
**A.** The IC50 was 14.1 nM.

molecular target: T3, CTLA-4-His protein (UniProt P16410 37-161); test: SPR
T3 sequence (P16410 37-161): as above

**Q.** Which Kd does the source give for B5 here?
**A.** Its Kd is 28 nM.

**Q.** Which Kd does the source give for B6 here?
**A.** The Kd was 2.6 nM.

**Q.** Which Kd does the source give for B7 here?
**A.** Its Kd is 6.6 nM.

**Q.** For B8, which Kd is on record?
**A.** The Kd was 4 nM.

**Q.** B9 was tested. Which Kd did it give?
**A.** Its Kd is 7.5 nM.

**Q.** Which Kd does the source give for B10 here?
**A.** The Kd was 13 nM.

molecular target: T4, PD-1-His protein (UniProt Q15116 25-167); test: SPR
T4 sequence (Q15116 25-167): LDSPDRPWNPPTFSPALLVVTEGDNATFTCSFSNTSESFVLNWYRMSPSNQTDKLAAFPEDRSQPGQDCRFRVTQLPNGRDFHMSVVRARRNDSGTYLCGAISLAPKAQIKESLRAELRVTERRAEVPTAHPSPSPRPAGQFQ

**Q.** For B6, which Kd is on record?
**A.** The Kd was 2.5 nM.

**Q.** Which Kd does the source give for B7 here?
**A.** Its Kd is 8.1 nM.

**Q.** How did the Kd turn out when B8 was run?
**A.** Its Kd is 2.2 nM.

**Q.** B9 was tested. Which Kd did it give?
**A.** The Kd was 7.5 nM.

molecular target: T2, biotin-labeled hCTLA-4/Fc protein; test: FACS ligand competition (B7-1 cells); remark: another data set of the same source

**Q.** With B10 as the binder, how does the EC50 read?
**A.** The EC50 was 41.9 nM.

molecular target: CTLA-4/Fc; test: SPR

**Q.** How did the Kd turn out when B11 was run?
**A.** Its Kd is 2.95 nM.

**Q.** For B12, which Kd is on record?
**A.** The Kd was 4.96 nM.

molecular target: T3, CTLA-4-His protein; test: SPR; remark: another data set of the same source

**Q.** With B1 as the binder, how does the Kd read?
**A.** Its Kd is 3 nM.

**Q.** For B2, which Kd is on record?
**A.** The Kd was 1.1 nM.

molecular target: T2, biotin-labeled hCTLA-4/Fc protein; test: FACS ligand competition

**Q.** Which IC50 does the source give for B1 here?
**A.** The IC50 was 11.9 nM.

**Q.** With B3 as the binder, how does the IC50 read?
**A.** The IC50 was 6.6 nM.

**Q.** Which IC50 does the source give for B2 here?
**A.** Its IC50 is 12.3 nM.

**Q.** How did the IC50 turn out when B4 was run?
**A.** Its IC50 is 14.1 nM.

molecular target: T1, human CTLA-4 expressed on CHO cells; test: FACS cell binding; remark: another data set of the same source

**Q.** For B6, which EC50 is on record?
**A.** The EC50 was 3.9 nM.

**Q.** Which EC50 does the source give for B7 here?
**A.** The EC50 was 2.7 nM.

**Q.** B8 was tested. Which EC50 did it give?
**A.** Its EC50 is 3 nM.

**Q.** With B9 as the binder, how does the EC50 read?
**A.** The EC50 was 3 nM.

molecular target: hPD-1-Fc fusion protein having a biotin label (human, UniProt Q15116 25-167, biotin label (sites not given)); test: FACS ligand competition
Sequence (Q15116 25-167): as above

**Q.** B6 was tested. Which IC50 did it give?
**A.** Its IC50 is 2.6 nM.

**Q.** Which IC50 does the source give for B7 here?
**A.** The IC50 was 4.8 nM.

**Q.** With B8 as the binder, how does the IC50 read?
**A.** The IC50 was 1.5 nM.

**Q.** How did the IC50 turn out when B9 was run?
**A.** The IC50 was 1.1 nM.

molecular target: T5, human PD-1 expressed on CHO cells (human, UniProt Q15116 25-288); test: FACS ligand competition (hPD-L1 Fc)
T5 sequence (Q15116 25-288): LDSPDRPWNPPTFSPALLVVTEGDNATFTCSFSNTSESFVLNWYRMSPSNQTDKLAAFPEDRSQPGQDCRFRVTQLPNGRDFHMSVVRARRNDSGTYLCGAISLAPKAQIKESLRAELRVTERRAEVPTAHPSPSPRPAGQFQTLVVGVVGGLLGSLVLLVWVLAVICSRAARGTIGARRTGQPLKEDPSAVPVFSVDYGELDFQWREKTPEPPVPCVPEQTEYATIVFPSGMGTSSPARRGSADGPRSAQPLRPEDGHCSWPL

**Q.** How did the IC50 turn out when B5 was run?
**A.** The IC50 was 16.5 nM.

**Q.** For B10, which IC50 is on record?
**A.** Its IC50 is 33.7 nM.

molecular target: T5, human PD-1 expressed on CHO cells; test: FACS cell binding

**Q.** For B6, which EC50 is on record?
**A.** The EC50 was 1.6 nM.

**Q.** Which EC50 does the source give for B7 here?
**A.** Its EC50 is 1.7 nM.

**Q.** With B8 as the binder, how does the EC50 read?
**A.** Its EC50 is 1.6 nM.

**Q.** With B9 as the binder, how does the EC50 read?
**A.** The EC50 was 2.2 nM.

molecular target: T2, biotin-labeled hCTLA-4/Fc protein; test: FACS ligand competition; remark: another data set of the same source

**Q.** For B6, which IC50 is on record?
**A.** Its IC50 is 17.2 nM.

**Q.** With B7 as the binder, how does the IC50 read?
**A.** The IC50 was 7.1 nM.

**Q.** B8 was tested. Which IC50 did it give?
**A.** Its IC50 is 11.7 nM.

**Q.** With B9 as the binder, how does the IC50 read?
**A.** The IC50 was 11.5 nM.

molecular target: T3, CTLA-4-His protein; test: SPR; remark: another data set of the same source

**Q.** B5 was tested. Which Kd did it give?
**A.** The Kd was 28.4 nM.

**Q.** Which Kd does the source give for B10 here?
**A.** The Kd was 13 nM.

molecular target: T4, PD-1-His protein; test: SPR; remark: another data set of the same source

**Q.** B5 was tested. Which Kd did it give?
**A.** The Kd was 7.63 nM.

**Q.** For B10, which Kd is on record?
**A.** The Kd was 11.1 nM.
